Data reported in patent publication US20170119790A1, “Agents, Uses and Methods” (CYTOGUIDE A/S, priority 2009, published 2017).

Tests used:
CD163 = CD163 (Homo sapiens, UniProt Q86VB7); test: Surface plasmon resonance (Biacore) analysis of mAb binding to immobilized CD163
Protocol: (§1) SPR analysis of the binding of mAbs to CD163 was carried out on a Biacore 2000 instrument (Biacore, Uppsala, Sweden). The Biacore sensor chips (type CM5) were activated with a 1:1 mixture of 0.2 M N-ethyl-N′-(3-dimethylaminopropyl) carbodiimide and 0.05 M N-hydroxysuccimide in water. Purified recombinant CD163 were immobilized in 10 mM sodium acetate, pH 4.0, and the remaining binding sites were blocked with 1 M ethanolamine, pH 8.5. The SPR signal generated from immobilized recombinant CD163 proteins corresponded to 40-70 fmol of protein/mm^2. Sensorgrams were generated using mAb concentrations ranging from 5-100 nM. The flow cells were regenerated with 1.6 M glycine-HCl, pH 3. The running buffer used for the experiment was either CaHBS 10 mM Hepes, 150 mM NaCl, 3.0 mM CaCl2, 1.0 mM EGTA, and 0.005% Tween 20, […], and 0.005% Tween 20, pH 7.4, mAb samples were dissolved in the same buffer as the running buffer used. All binding data were analyzed using the Biamolecular Interaction Analysis evaluation program version 3.1.
as §1, with “7.4, KN2/NRY and Mac-158” for “7.4, mAb”, “buffer used at a concentration of 5 μg/ml.” for “buffer used.”

[1] = target: T1, CHO cells expressing CD163 (Homo sapiens, UniProt Q86VB7); test: CD163 antibody binding and uptake in CHO cells expressing CD163 (confocal microscopy); assay type: cell-based; conditions: 0 or 30 minutes, FIG. 7
T1 construct: Stably transfected Chinese hamster ovary (CHO) cells expressing the full-length human CD163; expressed in transfected cells
T1 sequence (Q86VB7 42-1156): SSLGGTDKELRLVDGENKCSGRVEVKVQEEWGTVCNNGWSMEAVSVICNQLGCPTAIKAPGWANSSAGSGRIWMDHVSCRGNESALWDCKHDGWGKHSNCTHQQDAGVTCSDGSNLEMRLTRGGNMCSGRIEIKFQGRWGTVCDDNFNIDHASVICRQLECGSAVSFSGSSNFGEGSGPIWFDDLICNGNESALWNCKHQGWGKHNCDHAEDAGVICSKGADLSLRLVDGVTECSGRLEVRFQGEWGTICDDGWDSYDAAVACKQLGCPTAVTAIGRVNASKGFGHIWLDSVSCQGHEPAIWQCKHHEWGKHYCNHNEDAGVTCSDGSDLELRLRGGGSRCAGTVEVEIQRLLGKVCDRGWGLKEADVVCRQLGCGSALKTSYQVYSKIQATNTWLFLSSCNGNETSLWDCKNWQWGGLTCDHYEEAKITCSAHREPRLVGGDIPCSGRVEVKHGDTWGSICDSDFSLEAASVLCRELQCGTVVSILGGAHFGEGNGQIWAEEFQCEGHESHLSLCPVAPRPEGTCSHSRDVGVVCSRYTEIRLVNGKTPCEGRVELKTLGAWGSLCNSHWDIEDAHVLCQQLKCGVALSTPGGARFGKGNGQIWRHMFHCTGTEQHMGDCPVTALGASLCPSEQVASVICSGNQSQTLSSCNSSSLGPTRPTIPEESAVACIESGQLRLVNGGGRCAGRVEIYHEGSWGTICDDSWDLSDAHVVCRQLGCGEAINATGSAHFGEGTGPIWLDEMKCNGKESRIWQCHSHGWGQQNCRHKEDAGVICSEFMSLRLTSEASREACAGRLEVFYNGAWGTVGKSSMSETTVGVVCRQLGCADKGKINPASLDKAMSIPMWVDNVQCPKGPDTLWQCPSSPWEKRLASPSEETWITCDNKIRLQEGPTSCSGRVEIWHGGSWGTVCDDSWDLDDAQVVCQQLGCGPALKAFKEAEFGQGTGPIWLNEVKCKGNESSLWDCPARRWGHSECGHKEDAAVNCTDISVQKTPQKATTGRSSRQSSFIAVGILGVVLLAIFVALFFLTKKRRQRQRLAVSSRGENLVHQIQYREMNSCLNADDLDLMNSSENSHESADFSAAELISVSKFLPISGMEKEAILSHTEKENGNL
Protocol: Monocytes were isolated from PBMC by negative selection using magnetic beads from Dynal (Dynabeads® MyPure™ Monocyte Kit 2; Invitrogen A/S, Taastrup, Denmark) according to instructions provided by the manufacturer. Monocyte preparations were more than 95% (CD14^+) pure determined by flow cytometry. The isolated cells were washed twice with phosphate-buffered saline. Monocyte-derived macrophages (MDMs) were prepared by cell culture of monocytes (approximately 1×10^7 cells) for 4 days in 5% CO2 and 37° C. in RPMI 1640 media (RPMI 1640+25 mM HEPES+I-glutamine) (Invitrogen Corporation, Carlsbad, Calif., USA) with 20% FCS containing 100 ng/ml of M-CSF. MDMs were then detached from the flask by incubation with cell dissociation buffer (Invitrogen A/S, Taastrup, Denmark) for 30 minutes at 4 °C, then flushed, and scraped. […]
MDMs or CHO cells were washed with 4° C. cold D-PBS, pH 7.4, containing 1% BSA in Lab-Tek™ Chamber Slides (Thermo Fisher Scientific, Roskilde, Denmark). […] Fluorescence was visualized using a Zeiss Axiovert 200M microscope (Carl Zeiss GmbH, Jena, Germany) with an ×100 oil-immersion objective. […] Alternatively, immunostained cells were analyzed by confocal immunofluorescence microscopy using a Zeiss LSM-510 confocal microscope (Carl Zeiss GmbH, Jena, Germany). […]

Chain of CD163 (Q86VB7 42-1156): as above

B1: MAC2-158: anti-human CD163 murine mAb, binds SRCR domain 1, IQ Products; VH SEQ ID NO: 1, VL SEQ ID NO: 2 (antibody, V domains shown)
VH: DVQLQESGPGLVKPSQSLSLTCTVTGYSITSDYAWNWIRQFPGNKLEWMGYITYSGITNYNPSLKSQISITRDTSKNQFFLQLNSVTTEDTATYYCVSGTYYFDYWGQGTTLTVSS
VL: SVVMTQTPKSLLISIGDRVTITCKASQSVSSDVAWFQQKPGQSPKPLIYYASNRYTGVPDRFTGSGYGTDFTFTISSVQAEDLAVYFCGQDYTSPRTFGGGTKLEIKRA
modifications: Mac2-158 VH; Mac2-158 VL
- affinity for human CD163 immobilized on a Biacore chip (CD163; KN2/NRY compared with Mac2-158, 5 μg/ml, FIG. 19): Virtually similar affinities
- strength of binding to CD163 in Biacore studies (CD163; comparison between mAbs): high affinity
- affinities for CD163 (CD163; in both 2 mM free Ca2+ and 10 mM EDTA): nanomolar or sub-nanomolar range
- calcium dependence of binding activity in SPR-analysis (CD163; with/without calcium): binding activity regardless extracellular levels of calcium
- binding and uptake [1]: best binding and uptake
